Patent US20120045395

Target: SMAD3 (endogenous, A549 cells) (Homo sapiens) (UniProt P84022)
Assay: cell_activity
Settings: luciferase activity after TGF-beta in A549; indirect

Chain of SMAD3 (endogenous, A549 cells) (Homo sapiens) (P84022 2-425): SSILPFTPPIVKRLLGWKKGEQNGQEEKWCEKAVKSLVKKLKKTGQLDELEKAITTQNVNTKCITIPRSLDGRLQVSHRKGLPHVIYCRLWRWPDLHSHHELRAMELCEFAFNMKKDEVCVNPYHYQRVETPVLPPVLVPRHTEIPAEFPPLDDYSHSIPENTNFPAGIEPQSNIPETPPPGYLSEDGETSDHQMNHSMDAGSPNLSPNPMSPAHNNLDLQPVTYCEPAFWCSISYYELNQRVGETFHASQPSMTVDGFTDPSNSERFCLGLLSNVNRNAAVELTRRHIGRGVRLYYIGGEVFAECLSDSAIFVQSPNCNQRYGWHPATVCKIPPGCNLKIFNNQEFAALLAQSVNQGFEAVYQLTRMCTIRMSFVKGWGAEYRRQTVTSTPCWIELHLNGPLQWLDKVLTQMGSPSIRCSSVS

“let-7d promoter -1600 to +87 luciferase reporter (p-let-7d-luc)” showed an activity (% of untreated reporter activity) of under 30.
